Patent US20050287542
Positions count from the first letter of the chain named.

How the values were obtained:
[1] = system: p007 (Artificial Sequence); details: scale: fold average specificity ratio for hsCRE over any site in CT DNA
G56 (GCN4 bZIP element) = G56 (GCN4 bZIP element) (UniProt P03069); experiment: EMSA
[2] = system: T1, PPBR4SR (PPBR4) (Artificial Sequence); experiment: EMSA
T1 sequence: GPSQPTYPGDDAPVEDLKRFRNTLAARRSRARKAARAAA

[3] = system: T2, PPBR2SR (Artificial Sequence); experiment: EMSA; details: physiological ionic strength, on ice
T2 sequence: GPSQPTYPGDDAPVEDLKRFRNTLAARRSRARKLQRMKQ

[4] = system: p012 (Artificial Sequence); experiment: EMSA; details: 4 C
[5] = system: p011 (Artificial Sequence); experiment: EMSA; details: 4 C
[6] = biological target: G27 (isolated GCN4 basic region) (UniProt P03069); experiment: EMSA
[7] = system: p007 (Artificial Sequence); experiment: EMSA
[8] = system: p016 (Artificial Sequence); experiment: EMSA; details: 4 C
[9] = system: T3, PPBR4-deltaSR (Artificial Sequence); experiment: EMSA; details: hydrophobic core disrupted; scale: kcal/mol less stable than PPBR4SR-hsCRE24
T3 sequence: T1 sequence with A31L

[10] = system: PPBR4 on phage (Artificial Sequence); experiment: pulldown; details: phage panning, PBS, 0.1% NP-40, 2.5 ug/ml poly-dIdC, 4 C
[11] = system: aPP (avian pancreatic polypeptide) (avian); experiment: pulldown; details: phage panning, negative control; computed from the stated 10-fold

## calf thymus DNA
[1]
  binding signal: 4170

## hsCEBP24
G56 (GCN4 bZIP element); ddG -2.9 kcal/mol, scale: fold specificity ratio for hsCRE24 over hsCEBP24
  binding signal: 180
[2]; ddG -4.4 kcal/mol, scale: fold specificity ratio for hsCRE24 over hsCEBP24
  binding signal: 2600

## hsCRE24
G56 (GCN4 bZIP element)
  binding signal (fold preference over hsCEBP24): 180
[3]
  Kd: 5 nM
[4]
  Kd: 2.5 nM
[5]
  Kd: 1.5 nM
[6]; 4 C
  Kd: 410 nM
[6]; lacks polyproline helix and turn, scale: kcal/mol less stable than PPBR4SR-hsCRE24
  binding signal: 3.1
[7]; 4 C, PBS-type buffer with 1 mM EDTA
  Kd: 0.023 nM
[7]; 25 C
  Kd: 1.6 nM
[8]
  Kd: 0.3 nM
[9]
  binding signal: 3.2
[2]; PPBR4, 4 C
  Kd: 1.9 nM
[2]; physiological ionic strength, on ice
  Kd: 1.5 nM

## hsCRE24 on beads
[10]
  binding signal (fold retention over aPP phage): 10
[11]
  binding signal (fold retention relative to PPBR4 phage): 0.1
